Results: patent CN113683688A

Molecular target: HIV-1 P24重组蛋白 (原核细胞大肠杆菌表达的HIV-1 P24全长蛋白) (HIV-1) (UniProt P04591)
Test: indirect ELISA, serial two-fold dilution of the antibody

B1: 抗HIV-1 P24兔单克隆抗体OTIR5D12 (antibody, V domains shown)
VH: QSLEESGGRLVTPGTPLTLTCTASGFSLNSYYMTWVRQAPGKGLEWIGILDTSGSTDYASWAKGRFTISKTSTTVDLKVTSPTAADTATYFCARGAYYSAYGDAWGQGTLVTVSS
VL: AQVLTQTPSPVSAVLGGTVTINCQSSQSVYNSNWLSWFQQKPGQPPKLLIYKASNLASGVPSRFKGSGSGTQFTLTISSVQCDDAATYYCQGGYNNGDGFGGGTEVVVK
In the case of B1, the 效价 (antibody titer) is reported as 6.6e+06.
